In patent US20250186580A1 (TRIDEM BIOSCIENCE, published 2025):

Molecular target: Menveo, Neisseria meningitidis oligosaccharide (A, C, W135, Y) CRM197 conjugate vaccine, without β-glucan … (UniProt P00588 33-567)
Assay: competitive ELISA, soluble murine Fc-dectin-1a on coated glucan

B1: soluble murine Fc-dectin-1a receptor (InvivoGen) (Fc fusion)
chain: EYGHNSGRNPEEKDNFLSRNKENHKPTESSLDEKVAPSKASQTTGGFSQPCLPNWIMHGKSCYLFSFSGNSWYGSKRHCSQLGAHLLKIDNSKEFEFIESQTSSHRINAFWIGLSRNQSEGPWFWEDGSAFFPNSFQVRNTAPQESLLHNCVWIHGSEVYNQICNTSSYSICEKEL
B1: no binding.
